± gives the uncertainty stated by the source.
Experiment: self-splicing fitness, log relative to wild type (ln ratio); higher = more splicing; Tetrahymena group I intron in knt gene, E. coli kanamycin selection, DiMSum; sequences stand for … in CUCUCU…GGAGGGAAAAGUUAUCAGGCAUGCACCUGGUAGCUAGUCUUUAAACCAAUAGAUUGCAUCGGUUUAAAAGGCAAGACCGUCAAAUUGCGGGAAAGGGGUCAACAGCCGUUCAGUACCAAGUCUCAGGGGAAACUUUGAGAUGGCCUUGCAAAGGGUAUGGUAAUAAGCUGACGGACAUGGUCCUAACCACGCAGCCAAGUCCUAAGUCAACAGAUCUUCUGUUGAUAUGGAUGCAGUUCACAGACUAAAUGUCGGUCGGGGAAGAUGUAUUCUUCUCAUAAGAUAUAGUCGGACCUCUCCUUAAUGGGAGCUAGCGGAUGAAGUGAUGCAACACUGGAGCCGCUGGGAACUAAUUUGUAUGCGAAAGUAUAUUGAUUAGUUUUGGAGUACUCGUGGUCG
Method in brief: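 A randomised library covering all eight P1ex-region intron nucleotides was built with the intron in the knt kanamycin-resistance gene on pET-22b(+) and held in E. coli BL21(DE3). Cells were grown overnight at 37°C or 30°C on LB agar, with or without 25 μg/mL kanamycin, plus 100 μg/mL carbenicillin, 50 μM IPTG and 0.2% rhamnose, and pooled colonies were amplicon-sequenced on an Illumina HiSeq 2500. DiMSum fitness is the error-weighted combination of wild-type-normalised replicate fold changes, kanamycin versus none.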

Sequence	self-splicing fitness (ln) (30 °C)	self-splicing fitness (ln) (37 °C)
AUUCAGCAAUAUUACGAUAG	-3.99 ± 0.42	-2.57 ± 0.26
AUUCAGCAAUAUUACGAUAU	-0.41 ± 0.057	0.146 ± 0.079
AUUCAGCAAUAUUACGCAGA	-2.28 ± 0.21	-0.845 ± 0.12
AUUCAGCAAUAUUACGCAUC	-2.75 ± 0.16	-0.806 ± 0.16
AUUCAGCAAUAUUACGCCCU	0.164 ± 0.13	0.287 ± 0.21
AUUCAGCAAUAUUACGCGCC	-1.17 ± 0.15	0.194 ± 0.21
AUUCAGCAAUAUUACGCGUU	-0.912 ± 0.07	-0.348 ± 0.081
AUUCAGCAAUAUUACGGAGG	-2.29 ± 0.13	-1.13 ± 0.13
AUUCAGCAAUAUUACGGCCA	-0.32 ± 0.21	-0.225 ± 0.21
AUUCAGCAAUAUUACGGCGA	-0.392 ± 0.078	-0.501 ± 0.084
AUUCAGCAAUAUUACGGCGU	0.256 ± 0.057	0.488 ± 0.074
AUUCAGCAAUAUUACGGGCU	-2.2 ± 0.12	-1.38 ± 0.12
AUUCAGCAAUAUUACGGGUU	-2.8 ± 0.17	-1.75 ± 0.16
AUUCAGCAAUAUUACGUACA	-0.718 ± 0.095	0.309 ± 0.11
AUUCAGCAAUAUUACGUCAG	-2.51 ± 0.15	-1.67 ± 0.22
AUUCAGCAAUAUUACGUGAC	-3.05 ± 0.44	-1.84 ± 0.35
AUUCAGCAAUAUUACGUGUC	-4.2 ± 0.22	-2.02 ± 0.2
AUUCAGCAAUAUUACGUUCA	-1.07 ± 0.12	-0.606 ± 0.13
AUUCAGCAAUAUUACGUUGA	-2.64 ± 0.1	-1.34 ± 0.093
AUUCAGCAAUAUUACGUUGG	-2.45 ± 0.12	-1.94 ± 0.13
AUUCAGCAAUAUUACGUUUG	-2.76 ± 0.094	-1.54 ± 0.1
AUUGAGCAAUAUUACGAACG	-2.34 ± 0.18	-0.91 ± 0.3
AUUGAGCAAUAUUACGAGAG		-2.66 ± 0.29
AUUGAGCAAUAUUACGAUCC	-1.32 ± 0.4	
AUUGAGCAAUAUUACGCAGG	-3.68 ± 0.29	-2.72 ± 0.27
AUUGAGCAAUAUUACGCCUG	-2.27 ± 0.33	
AUUGAGCAAUAUUACGCGAG	-1.83 ± 0.13	-0.958 ± 0.14

Sequence	self-splicing fitness (ln) (30 °C)	self-splicing fitness (ln) (37 °C)
AUUGAGCAAUAUUACGCGGC	-3.26 ± 0.38	
AUUGAGCAAUAUUACGCUAU	-3.5 ± 0.44	-2.12 ± 0.42
AUUGAGCAAUAUUACGCUUU	-2.92 ± 0.24	-1.29 ± 0.26
AUUGAGCAAUAUUACGGACC	-3.26 ± 0.48	
AUUGAGCAAUAUUACGGUCU	-2.72 ± 0.15	-2.56 ± 0.25
AUUGAGCAAUAUUACGGUUA	-3.06 ± 0.29	-2.57 ± 0.22
AUUGAGCAAUAUUACGUACC		-1.17 ± 0.46
AUUGAGCAAUAUUACGUCUU	-1.39 ± 0.12	-0.607 ± 0.14
AUUGAGCAAUAUUACGUGUG	-2.38 ± 0.11	-2.41 ± 0.16
AUUGAGCAAUAUUACGUUUA	-2.83 ± 0.19	-2.98 ± 0.27
AUUUAGCAAUAUUACGAACC	-2.12 ± 0.19	-0.169 ± 0.21
AUUUAGCAAUAUUACGACCA	-0.901 ± 0.19	-0.373 ± 0.23
AUUUAGCAAUAUUACGAGGU	-3.21 ± 0.39	-1.91 ± 0.42
AUUUAGCAAUAUUACGCACU	0.177 ± 0.13	0.474 ± 0.16
AUUUAGCAAUAUUACGCAGC	-2.71 ± 0.35	-1.68 ± 0.43
AUUUAGCAAUAUUACGCCAG	-2.27 ± 0.27	
AUUUAGCAAUAUUACGCGCU	-0.923 ± 0.18	-0.889 ± 0.15
AUUUAGCAAUAUUACGGAUC	-2.84 ± 0.22	-0.766 ± 0.19
AUUUAGCAAUAUUACGGAUU	-2.1 ± 0.21	-0.519 ± 0.2
AUUUAGCAAUAUUACGGCCC	-1.06 ± 0.2	-0.289 ± 0.3
AUUUAGCAAUAUUACGGCGG	-2.31 ± 0.17	-0.525 ± 0.17
AUUUAGCAAUAUUACGGGUU		-0.906 ± 0.21
AUUUAGCAAUAUUACGGUCC	-2.72 ± 0.17	-0.126 ± 0.15
AUUUAGCAAUAUUACGGUGG	-3.55 ± 0.31	-3.1 ± 0.27
AUUUAGCAAUAUUACGGUUC		-3.23 ± 0.43
AUUUAGCAAUAUUACGUUAA	-2.52 ± 0.27	-2.56 ± 0.34
AUUUAGCAAUAUUACGUUCA	-0.355 ± 0.17	-0.395 ± 0.18

Sequence	self-splicing fitness (ln) (30 °C)	self-splicing fitness (ln) (37 °C)
AUUUAGCAAUAUUACGUUCC	-1.54 ± 0.26	-1.23 ± 0.49
CAAAAGCAAUAUUACGACCG	-0.0202 ± 0.1	-0.497 ± 0.13
CAAAAGCAAUAUUACGAGAG	-2.79 ± 0.1	-2.34 ± 0.11
CAAAAGCAAUAUUACGAUGG	-0.431 ± 0.062	-0.139 ± 0.079
CAAAAGCAAUAUUACGAUGU	-2.32 ± 0.075	-1.66 ± 0.11
CAAAAGCAAUAUUACGCUAU	-2.78 ± 0.16	-2.09 ± 0.19
CAAAAGCAAUAUUACGCUUA	-3.17 ± 0.23	-2.17 ± 0.15
CAAAAGCAAUAUUACGCUUG	-3.3 ± 0.15	-2.35 ± 0.19
CAAAAGCAAUAUUACGGACG	-0.163 ± 0.059	0.223 ± 0.079
CAAAAGCAAUAUUACGGAUG	-2.76 ± 0.11	-1.4 ± 0.14
CAAAAGCAAUAUUACGGCGU	-1.23 ± 0.069	-0.3 ± 0.086
CAAAAGCAAUAUUACGGUCA	-1.83 ± 0.13	0.0762 ± 0.1
CAAAAGCAAUAUUACGUAAC	-3.75 ± 0.18	-2.62 ± 0.3
CAAAAGCAAUAUUACGUACA	-1.91 ± 0.1	-1.54 ± 0.13
CAAAAGCAAUAUUACGUAGG	-0.97 ± 0.057	0.00194 ± 0.083
CAAAAGCAAUAUUACGUCAG	-0.464 ± 0.062	-0.392 ± 0.075
CAACAGCAAUAUUACGAAGU		-1.78 ± 0.16
CAACAGCAAUAUUACGACCG	0.0339 ± 0.079	-0.239 ± 0.081
CAACAGCAAUAUUACGACGA	-0.955 ± 0.075	0.0703 ± 0.084
CAACAGCAAUAUUACGAGUC	-3.58 ± 0.2	-2.58 ± 0.26
CAACAGCAAUAUUACGAUCG	-0.183 ± 0.052	0.463 ± 0.069
CAACAGCAAUAUUACGAUUC	-0.966 ± 0.087	-0.733 ± 0.11
CAACAGCAAUAUUACGCAGG	-2.19 ± 0.11	-0.807 ± 0.085
CAACAGCAAUAUUACGCCCU	-1.96 ± 0.086	-1.24 ± 0.1
CAACAGCAAUAUUACGCCGG	-0.647 ± 0.062	0.147 ± 0.087
